# According to publication PMC6020293, “In Vitro Reconstitution of Functional Type III Protein Export and Insights into Flagellar Assembly” (mBio, 2018):
# Molecular target: the molecule itself
# Assay: co-sedimentation; purified FlgE (4 µM) transported into inverted membrane vesicles with FlgD (0.6 or 4 µM), FliH2/FliI complex, FliJ and 5 mM ATP; after proteinase K and Triton X-100 centrifuged at 150,000 x g for 30 min; supernatant and precipitate immunoblotted; hook forms on the basal body inside the vesicle
protein,measurement,value
"FlgE (natural protein, FlgE, flagellar hook protein, Salmonella; also called hook protein FlgE) MSFSQAVSGLNAAATNLDVIGNNIANSATYGFKSGTASFADMFAGSKVGLGVKVAGITQDFTDGTTTNTGRGLDVAISQNGFFRLVDSNGSVFYSRNGQFKLDENRNLVNMQGMQLTGYPATGTPPTIQQGANPAPITIPNTLMAAKSTTTASMQINLNSTDPVPSKTPFSVSDADSYNKKGTVTVYDSQGNAHDMNVYFVKTKDNEWAVYTHDSSDPAATAPTTASTTLKFNENGILESGGTVNITTGTINGATAATFSLSFLNSMQQNTGANNIVATNQNGYKPGDLVSYQINNDGTVVGNYSNEQEQVLGQIVLANFANNEGLASQGDNVWAATQASGVALLGTAGSGNFGKLTNGALEASNVDLSKELVNMIVAQRNYQSNAQTIKTQDQILNTLVNLR",binding result,binds
